In US7572594B2, “Screening assays for agonists or antagonists or receptor activator of NF-κB” (Immunex Corporation, priority 2000, dated 2009):

What was measured:
[1] = test system: mouse MMP-9 mRNA; assay: Quantitative RT-PCR of MMP-9 mRNA in RAW 264.7 cells; type: cell-based; conditions: RANKL/LZ 200 ng/ml or TNFα 20 ng/ml, various times
Excerpt: MMP-9 mRNA is elevated greater than 350-fold by RANK-L, but is not increased by TNFα. This specificity is helpful in screening for inhibitors of RANK signal transduction.

[2] = test system: mouse TRAP mRNA; assay: Quantitative RT-PCR of TRAP mRNA in RAW 264.7 cells; type: cell-based; conditions: RANKL/LZ 200 ng/ml or TNFα 20 ng/ml, various times
[3] = test system: endogenous c-jun kinase (JNK); assay: JNK immune-complex kinase assay in transfected 3T3 cells; type: cell-based, murine; conditions: 3T3 cells 24 hours after transfection, absence of RANK-L stimulation
Protocol: This example describes evaluating murine 3T3 cells transfected with plasmids containing DNA encoding human FEO RANK (SEQ ID NO:9), and murine 3T3 cells expressing recombinant DNA encoding human wild type RANK (SEQ ID NO:1) for their relative ability to activate endogenous c-jun kinase (JNK) in the absence of RANK-L stimulation. JNK is known to be activated as a consequence of RANK signal transduction.
For JNK assays, whole cell extracts were prepared from 3T3 cells 24 hours after transfection. Cells were lysed in a buffer containing 20 mM HEPES, pH 7.4, 2 mM EGTA, 50 mM β-glycerol phosphate, 1 mM DTT, 1 mM sodium orthovanadate, 1% Triton-X 100, 10% glycerol and the protease inhibitors leupeptin, pepstatin A, and PMSF. Clarified lysates were immunoprecipitated with 1 μg each anti-JNK (FL) and anti-JNK (C17) antibodies (both from Santa Cruz Biotechnology, Inc. Santa Cruz, Calif.). […] JNK activity was determined by an immune-complex assay using 1 μg of a fusion protein of glutathione-S-transferase and amino acids 1-169 of […] (GST-cJun (1-169)) (UBI, Lake Placid, N.Y.) and 5 μCi of [^32P]-ATP as substrate in 40 μl of assay buffer at 30° C. for 20 min. […]

[4] = test system: MMP-9 promoter (nucleotides 1769-3591 of SEQ ID NO:11); assay: pSIR/MMP-9 hIL-2 αR reporter in RAW264.7 cells, flow cytometry; type: cell-based, murine; conditions: RAW264.7 cells stably expressing pSIR/MMP-9
Excerpt: The location of the RANK-responsive portion of MMP-9 promoter was more narrowly identified by testing further truncations of the promoter. A PVUII/BGL2 restriction fragment including the 5′-proximal 1822 bp of the MMP-9 promoter was fused with a BLGII/EcoRI restriction fragment encoding the human IL-2 receptor a in the multicloning site of the pSIR retroviral vector (Clontech). The resulting plasmid, which was named pSIR/MMP-9, is responsive to RANK and is useful in assays to identify RANK antagonists. The region of the MMP-9 promoter present in pSIR/MMP-9 corresponds to nucleotides 1769-3591 of SEQ ID NO:11.
pSIR/MMP-9 was introduced into RANK responsive cells as follows. Retroviral particles were prepared after transfection of 293/E packaging cells with pSIR/MMP-9. RAW264.7 cells were infected with these particles and neomycin resistant colonies stably expressing the reporter were isolated. Treatment of these cells with RANKL led to an increase in the cell surface expression of the hIL-2 αR, as detected by flow cytometry using the mouse mAb (clone 2A3) anti-human IL-2 αR as a reagent for detecting the IL-2R. […]
Surface expression of human IL-2α receptor is detected by flow cytometry in the following manner. […] After washing the cells, the fluorescence intensity is measured using a flow cytometer, such as a FACS scan (Becton Dickinson).

[5] = test system: RANK; assay: radioimmune assay of reporter surface expression in 293/EBNA cells; type: cell-based; conditions: 48 hours after transfection
Protocol: Additionally, surface expression of human IL-2α receptor can be analyzed using a radioactive antibody against IL-2α receptor. For the mIL-4R-specific radioimmune assay, mouse anti-human IL-2α monoclonal antibody reactive with mIL-4R was labeled with ^125I via a Chloramine T conjugation method; the resulting specific activity is typically […]. After 48 hours, cells transfected with pGL2-MMP-9/human IL-2 receptor were washed once with media (DMEM, 12 5% FBS). Non-specific binding sites were blocked by the addition of pre-warmed binding media containing 5% non-fat dry milk and incubation at 37° C./5% CO2 in a tissue culture incubator for one hour. The blocking media was decanted and binding buffer containing ^125I anti-mIL-4R (clone M1; rat IgG1) was added to the cells and incubated with rocking at room temperature for 1 hour. After incubation of the cells with the radio-labeled antibody, cells were washed extensively with binding buffer (2 X) and twice with phosphate-buffered saline (PBS). Cells were lysed in 1 ml of 0.5M NaOH, and total radioactivity measured with a gamma counter.

Molecule: TNFα [reference compound]
- MMP-9 mRNA elevation [1]: not increased
- TRAP mRNA elevation [2]: about 2.3 fold

B1: FEO RANK: mutated form of RANK isolated from patients with familial expansile osteolysis (SEQ ID NOS:9 and 10), expressed from transfected DNA (protein, listed as Homo sapiens)
chain: MAPRARRRRPLFALLLLCALLLLCALLARLQVALQIAPPCTSEKHYEHLGRCCNKCEPGKYMSSKCTTTSDSVCLPCGPDEYLDSWNEEDKCLLHKVCDTGKALVAVVAGNSTTPRRCACTAGYHWSQDCECCRRNTECAPGLGAQHPLQLNKDTVCKPCLAGYFSDAFSSTDKCRPWTNCTFLGKRVEHHGTEKSDAVCSSSLPARKPPNEPHVYLPGLIILLLFASVALVAAIIFGVCYRKKGKALTANLWHWINEACGRLSGDKESSGDSCVSTHTANFGQQGACEGVLLLTLEEKTFPEDMCYPDQGGVCQGTCVGGGPYAQGEDARMLSLVSKTEIEEDSFRQMPTEDEYMDRPSQPTDQLLFLTEPGSKSTPPFSEPLEVGENDSLSQCFTGTQSTVGSESCNCTEPLCRTDWTPMSSENYLQKEVDSGHCPHWAASPSPNWADVCTGCRNPPGEDCEPLVGSPKRGPLPQCAYGMGLPPEEEASRTEARDQPEDGADGRLPSSARAGAGSGSSPGGQSPASGNVTGNSNSTFISSGQVMNFKGDIIVVYVSQTSQEGAAAAAEPMGRPVQEETLARRDSFAGNGPRFPDPCGGPEGLREPEKASRPVQEQGGAKA
- activation of JNK [3]: activated

B2: RANKL: RANK ligand used to treat RAW264.7 reporter cells; form not specified (protein)
chain: MRRASRDYTKYLRGSEEMGGGPGAPHEGPLHAPPPPAPHQPPAASRSMFVALLGLGLGQVVCSVALFFYFRAQMDPNRISEDGTHCIYRILRLHENADFQDTTLESQDTKLIPDSCRRIKQAFQGAVQKELQHIVGSQHIRAEKAMVDGSWLDLAKRSKLEAQPFAHLTINATDIPSGSHKVSLSSWYHDRGWAKISNMTFSNGKLIVNQDGFYYLYANICFRHHETSGDLATEYLQLMVYVTKTSIKIPSSHTLMKGGSTKYWSGNSEFHFYSINVGGFFKLRSGEEISIEVSNPSLLDPDQDATYFGAFKVRDID
- cell surface expression of the hIL-2 αR [4]: increase
- time to maximal level of hIL-2 α receptor expression [4]: ≤ 48 h

B3: RANK-L: RANK ligand, Type 2 transmembrane protein that binds to and activates RANK; human full-length SEQ ID NO:6 (protein, listed as Homo sapiens)
chain: MRRASRDYTKYLRGSEEMGGGPGAPHEGPLHAPPPPAPHQPPAASRSMFVALLGLGLGQVVCSVALFFYFRAQMDPNRISEDGTHCIYRILRLHENADFQDTTLESQDTKLIPDSCRRIKQAFQGAVQKELQHIVGSQHIRAEKAMVDGSWLDLAKRSKLEAQPFAHLTINATDIPSGSHKVSLSSWYHDRGWAKISNMTFSNGKLIVNQDGFYYLYANICFRHHETSGDLATEYLQLMVYVTKTSIKIPSSHTLMKGGSTKYWSGNSEFHFYSINVGGFFKLRSGEEISIEVSNPSLLDPDQDATYFGAFKVRDID
- transcriptional activation, reporter detected on the cell surface [5]: resulted in transcription of muIL-4R
